The target in one assay is Rab7A(QL)-6xHis (human) (UniProt P51149). Briefly: liposome flotation; purified VPS13C construct with SUVs (84.8% POPC, 10% POPE, 5% DGS-NTA, 0.2% Rhodamine-PE) to which His-tagged Rab7A(QL) or ATG7 was tethered; 1 mM GTP, 2 mM Mg2+, room temperature 20 min; OptiPrep gradient, top fraction on SDS-PAGE.
The target in assay [1] is human Rab7A-Q67L with an N-terminal Strep tag (human) (UniProt P51149). The experiment in a line: pull-down; Strep-Rab7A(Q67L) and FLAG-tagged VPS13C constructs co-expressed in Expi293F; lysate in buffer A with 1 mM GTP and 2 mM MgCl2 on Strep-Tactin XT resin, 2 h at 4 °C, eluted with 50 mM biotin; SDS-PAGE with Coomassie stain and/or anti-FLAG western blot.

We go through 2 substances from publication doi:10.1101/2025.11.10.687702.

Chain of human Rab7A-Q67L with an N-terminal Strep tag (human) (P51149 whole entry Q67L): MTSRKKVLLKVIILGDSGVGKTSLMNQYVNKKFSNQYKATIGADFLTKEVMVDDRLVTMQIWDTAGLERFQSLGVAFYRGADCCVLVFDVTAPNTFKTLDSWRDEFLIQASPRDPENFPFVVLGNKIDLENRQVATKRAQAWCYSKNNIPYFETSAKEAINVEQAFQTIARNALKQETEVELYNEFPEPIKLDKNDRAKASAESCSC
Chain of Rab7A(QL)-6xHis (human) (P51149 whole entry Q67L): as above
Chain of VPS13C lacking the amphipathic helices of the ATG2_C motif, C-terminal 3xFLAG (Q709C8 whole entry): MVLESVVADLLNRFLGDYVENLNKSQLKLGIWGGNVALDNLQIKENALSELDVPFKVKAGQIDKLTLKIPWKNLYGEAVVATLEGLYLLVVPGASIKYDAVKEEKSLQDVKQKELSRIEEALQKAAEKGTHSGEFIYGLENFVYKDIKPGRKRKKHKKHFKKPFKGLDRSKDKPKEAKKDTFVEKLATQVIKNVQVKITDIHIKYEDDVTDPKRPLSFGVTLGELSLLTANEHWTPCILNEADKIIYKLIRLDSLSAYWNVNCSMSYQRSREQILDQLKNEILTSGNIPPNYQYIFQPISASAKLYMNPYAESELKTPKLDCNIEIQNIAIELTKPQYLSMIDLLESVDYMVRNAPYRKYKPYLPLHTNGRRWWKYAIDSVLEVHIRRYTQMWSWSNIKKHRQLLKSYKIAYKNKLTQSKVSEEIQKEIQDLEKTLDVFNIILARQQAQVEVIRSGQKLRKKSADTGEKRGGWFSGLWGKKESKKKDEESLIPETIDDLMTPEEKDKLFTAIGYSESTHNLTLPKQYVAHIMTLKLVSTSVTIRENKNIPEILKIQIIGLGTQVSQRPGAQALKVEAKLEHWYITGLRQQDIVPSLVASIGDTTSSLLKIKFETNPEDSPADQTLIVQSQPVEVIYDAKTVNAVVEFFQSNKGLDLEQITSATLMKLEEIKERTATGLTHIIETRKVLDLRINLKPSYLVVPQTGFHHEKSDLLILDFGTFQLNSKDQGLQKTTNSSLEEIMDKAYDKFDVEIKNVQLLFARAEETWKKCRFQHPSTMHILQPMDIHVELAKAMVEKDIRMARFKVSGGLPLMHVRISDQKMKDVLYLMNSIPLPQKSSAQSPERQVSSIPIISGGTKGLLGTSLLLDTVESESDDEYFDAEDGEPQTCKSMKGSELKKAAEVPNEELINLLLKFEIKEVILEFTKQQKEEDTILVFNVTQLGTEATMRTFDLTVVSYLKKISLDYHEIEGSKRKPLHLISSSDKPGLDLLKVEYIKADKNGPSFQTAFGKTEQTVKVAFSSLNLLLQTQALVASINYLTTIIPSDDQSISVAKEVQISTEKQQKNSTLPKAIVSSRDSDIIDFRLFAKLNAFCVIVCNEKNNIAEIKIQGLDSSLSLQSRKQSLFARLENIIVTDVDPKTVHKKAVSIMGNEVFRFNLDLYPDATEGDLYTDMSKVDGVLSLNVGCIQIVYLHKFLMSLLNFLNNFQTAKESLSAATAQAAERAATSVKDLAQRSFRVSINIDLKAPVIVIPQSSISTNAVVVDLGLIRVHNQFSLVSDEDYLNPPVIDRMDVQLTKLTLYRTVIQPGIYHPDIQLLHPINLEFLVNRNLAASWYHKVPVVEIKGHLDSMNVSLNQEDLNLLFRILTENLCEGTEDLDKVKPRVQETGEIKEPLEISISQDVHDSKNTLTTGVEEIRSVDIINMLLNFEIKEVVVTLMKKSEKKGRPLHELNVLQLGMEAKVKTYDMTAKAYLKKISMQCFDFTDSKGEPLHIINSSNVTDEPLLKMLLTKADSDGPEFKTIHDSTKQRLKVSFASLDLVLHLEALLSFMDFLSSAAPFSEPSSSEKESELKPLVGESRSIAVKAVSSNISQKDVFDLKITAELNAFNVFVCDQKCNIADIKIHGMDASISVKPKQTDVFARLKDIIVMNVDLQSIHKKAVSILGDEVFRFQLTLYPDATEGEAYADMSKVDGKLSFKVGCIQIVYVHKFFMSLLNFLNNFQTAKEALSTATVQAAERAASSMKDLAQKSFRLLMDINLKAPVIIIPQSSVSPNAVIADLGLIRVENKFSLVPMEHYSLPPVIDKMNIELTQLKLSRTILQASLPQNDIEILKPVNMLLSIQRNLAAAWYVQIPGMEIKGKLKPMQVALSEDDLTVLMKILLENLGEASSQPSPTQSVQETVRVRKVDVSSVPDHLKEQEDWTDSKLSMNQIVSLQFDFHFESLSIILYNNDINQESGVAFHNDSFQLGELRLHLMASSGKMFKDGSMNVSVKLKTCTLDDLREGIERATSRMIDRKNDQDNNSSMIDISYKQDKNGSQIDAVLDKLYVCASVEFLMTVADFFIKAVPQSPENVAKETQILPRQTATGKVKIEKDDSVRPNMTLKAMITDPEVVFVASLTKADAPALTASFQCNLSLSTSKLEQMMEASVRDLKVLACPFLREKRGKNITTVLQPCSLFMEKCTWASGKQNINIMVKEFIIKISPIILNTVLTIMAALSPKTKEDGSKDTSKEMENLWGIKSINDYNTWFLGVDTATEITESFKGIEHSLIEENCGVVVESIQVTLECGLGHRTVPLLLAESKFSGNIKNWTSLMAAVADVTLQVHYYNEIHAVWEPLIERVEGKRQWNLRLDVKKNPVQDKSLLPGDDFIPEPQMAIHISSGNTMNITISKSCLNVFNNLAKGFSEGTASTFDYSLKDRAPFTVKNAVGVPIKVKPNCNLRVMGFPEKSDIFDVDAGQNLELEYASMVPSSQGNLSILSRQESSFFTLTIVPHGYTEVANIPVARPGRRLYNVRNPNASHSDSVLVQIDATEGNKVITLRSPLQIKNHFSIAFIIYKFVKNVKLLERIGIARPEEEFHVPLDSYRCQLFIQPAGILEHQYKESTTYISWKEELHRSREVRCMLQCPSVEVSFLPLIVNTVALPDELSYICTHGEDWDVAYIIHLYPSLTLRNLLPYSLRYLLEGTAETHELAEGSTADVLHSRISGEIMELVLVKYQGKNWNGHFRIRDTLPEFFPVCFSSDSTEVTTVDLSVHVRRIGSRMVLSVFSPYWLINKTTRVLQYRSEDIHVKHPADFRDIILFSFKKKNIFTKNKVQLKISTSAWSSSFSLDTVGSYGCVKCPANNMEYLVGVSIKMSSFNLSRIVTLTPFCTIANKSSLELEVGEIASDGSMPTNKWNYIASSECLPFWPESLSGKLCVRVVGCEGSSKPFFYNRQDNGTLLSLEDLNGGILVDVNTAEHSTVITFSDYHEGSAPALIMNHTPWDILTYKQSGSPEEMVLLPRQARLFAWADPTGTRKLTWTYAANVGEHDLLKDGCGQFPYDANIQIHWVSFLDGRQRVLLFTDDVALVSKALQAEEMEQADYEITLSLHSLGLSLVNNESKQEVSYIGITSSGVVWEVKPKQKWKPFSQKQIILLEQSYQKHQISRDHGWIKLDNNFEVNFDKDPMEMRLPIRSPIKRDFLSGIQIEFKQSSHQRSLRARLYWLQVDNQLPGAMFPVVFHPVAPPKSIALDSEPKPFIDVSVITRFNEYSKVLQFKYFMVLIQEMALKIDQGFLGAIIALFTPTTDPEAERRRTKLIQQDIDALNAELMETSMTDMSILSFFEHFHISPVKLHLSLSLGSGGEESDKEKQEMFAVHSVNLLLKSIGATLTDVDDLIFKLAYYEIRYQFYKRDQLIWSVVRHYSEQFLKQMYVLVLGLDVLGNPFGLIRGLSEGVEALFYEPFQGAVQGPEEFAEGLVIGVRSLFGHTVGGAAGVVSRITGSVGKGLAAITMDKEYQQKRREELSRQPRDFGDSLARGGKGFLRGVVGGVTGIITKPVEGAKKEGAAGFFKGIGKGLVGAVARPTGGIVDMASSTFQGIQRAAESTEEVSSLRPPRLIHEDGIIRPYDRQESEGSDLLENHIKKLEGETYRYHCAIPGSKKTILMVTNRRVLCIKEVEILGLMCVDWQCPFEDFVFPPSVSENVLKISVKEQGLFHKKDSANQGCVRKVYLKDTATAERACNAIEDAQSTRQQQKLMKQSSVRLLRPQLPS

Consider “VPS13C lacking the amphipathic helices of the ATG2_C motif, C-terminal 3xFLAG (from UniProt Q709C8 1-3753) (natural protein)”, for which the percent co-floated with SUVs bearing His-tagged Rab7A in the assay with Rab7A(QL)-6xHis (human) was > 80%.

Consider “full-length human VPS13C with a C-terminal 3xFLAG tag, Q709C8 1-3753”, for which, in assay [1], the fraction of total overexpressed VPS13C retained by Rab7(Q67L) was determined as 5%.
